# According to the supplement of paper PMC7877785:
# ± gives the uncertainty stated by the source.
# Experiment: self-splicing fitness, log relative to wild type (ln ratio); higher = more splicing; Tetrahymena group I intron in knt gene, E. coli kanamycin selection, DiMSum; sequences stand for … in CUCUCU…GGAGGGAAAAGUUAUCAGGCAUGCACCUGGUAGCUAGUCUUUAAACCAAUAGAUUGCAUCGGUUUAAAAGGCAAGACCGUCAAAUUGCGGGAAAGGGGUCAACAGCCGUUCAGUACCAAGUCUCAGGGGAAACUUUGAGAUGGCCUUGCAAAGGGUAUGGUAAUAAGCUGACGGACAUGGUCCUAACCACGCAGCCAAGUCCUAAGUCAACAGAUCUUCUGUUGAUAUGGAUGCAGUUCACAGACUAAAUGUCGGUCGGGGAAGAUGUAUUCUUCUCAUAAGAUAUAGUCGGACCUCUCCUUAAUGGGAGCUAGCGGAUGAAGUGAUGCAACACUGGAGCCGCUGGGAACUAAUUUGUAUGCGAAAGUAUAUUGAUUAGUUUUGGAGUACUCGUGGUCG
# Summary of the method: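 Fitness was computed with DiMSum as the error-weighted combination of replicate fold changes, kanamycin versus none, each normalised to wild type. The library randomised all eight intron nucleotides of the P1ex region, with the intron placed in the knt kanamycin-resistance gene on pET-22b(+) in E. coli BL21(DE3). Six replicate transformations were grown overnight at 37°C or 30°C on LB agar with or without 25 μg/mL kanamycin, plus 100 μg/mL carbenicillin, 50 μM IPTG and 0.2% rhamnose. Pooled colonies were amplicon-sequenced on an Illumina HiSeq 2500.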
Sequence,self-splicing fitness (ln) (30 °C),self-splicing fitness (ln) (37 °C)
CUAUAGCAAUAUUACGGUUC,-3.27 ± 0.25,-2.12 ± 0.39
CUAUAGCAAUAUUACGUACU,-3.66 ± 0.47,–
CUAUAGCAAUAUUACGUAUU,-3.8 ± 0.32,–
CUAUAGCAAUAUUACGUCAA,-3.16 ± 0.2,-2.7 ± 0.23
CUAUAGCAAUAUUACGUCGC,-3.75 ± 0.24,–
CUAUAGCAAUAUUACGUGAG,-0.571 ± 0.057,-0.137 ± 0.086
CUAUAGCAAUAUUACGUGCU,-3.61 ± 0.33,-2.56 ± 0.32
CUAUAGCAAUAUUACGUGUA,-2.77 ± 0.33,-2.55 ± 0.26
CUAUAGCAAUAUUACGUUUC,-3.68 ± 0.23,-2.86 ± 0.31
CUCAAGCAAUAUUACGAAGC,-3.4 ± 0.28,-2.56 ± 0.35
CUCAAGCAAUAUUACGAGGU,–,-1.19 ± 0.18
CUCAAGCAAUAUUACGAGUA,-3.49 ± 0.28,-2.41 ± 0.23
CUCAAGCAAUAUUACGAUGA,-1.31 ± 0.11,-2.07 ± 0.16
CUCAAGCAAUAUUACGCAGA,-3.06 ± 0.5,-2.41 ± 0.21
CUCAAGCAAUAUUACGCCGG,-2.92 ± 0.38,-1.53 ± 0.31
CUCAAGCAAUAUUACGCGUC,-4.33 ± 0.39,-1.37 ± 0.16
CUCAAGCAAUAUUACGCUAG,-4.26 ± 0.32,-2.35 ± 0.14
CUCAAGCAAUAUUACGCUCU,-4.12 ± 0.25,-2.39 ± 0.21
CUCAAGCAAUAUUACGGACG,-0.792 ± 0.063,0.266 ± 0.095
CUCAAGCAAUAUUACGGAUG,-1.48 ± 0.088,-1.05 ± 0.13
CUCAAGCAAUAUUACGGCGC,–,-0.598 ± 0.19
CUCAAGCAAUAUUACGGCUC,-3.53 ± 0.26,-1.34 ± 0.21

Sequence,self-splicing fitness (ln) (30 °C),self-splicing fitness (ln) (37 °C)
CUCAAGCAAUAUUACGGGUA,-2.42 ± 0.14,-1.01 ± 0.1
CUCAAGCAAUAUUACGGUGG,-2.01 ± 0.061,-1.1 ± 0.081
CUCAAGCAAUAUUACGGUUU,-2.38 ± 0.1,-2.36 ± 0.14
CUCAAGCAAUAUUACGUACA,-3.5 ± 0.23,-1.83 ± 0.18
CUCAAGCAAUAUUACGUGCU,-4.3 ± 0.24,-2.73 ± 0.17
CUCAAGCAAUAUUACGUGUU,-3.89 ± 0.23,-2.76 ± 0.22
CUCAAGCAAUAUUACGUUAA,-4.15 ± 0.3,-2.76 ± 0.19
CUCCAGCAAUAUUACGAAAG,-0.942 ± 0.11,-1.41 ± 0.14
CUCCAGCAAUAUUACGACCG,-0.451 ± 0.12,-1.15 ± 0.2
CUCCAGCAAUAUUACGACGG,-3.56 ± 0.23,-2.42 ± 0.24
CUCCAGCAAUAUUACGACUU,-3.85 ± 0.26,-2.15 ± 0.19
CUCCAGCAAUAUUACGAGAC,-4.42 ± 0.46,-3.28 ± 0.37
CUCCAGCAAUAUUACGAGAG,-4.68 ± 0.31,-1.32 ± 0.13
CUCCAGCAAUAUUACGAGAU,-2.99 ± 0.19,-3.15 ± 0.21
CUCCAGCAAUAUUACGAGUC,-3.83 ± 0.34,-2.15 ± 0.26
CUCCAGCAAUAUUACGAUCC,-4.16 ± 0.47,-1.49 ± 0.32
CUCCAGCAAUAUUACGAUUC,-4.14 ± 0.18,-2.72 ± 0.19
CUCCAGCAAUAUUACGAUUU,-3.75 ± 0.2,-2.08 ± 0.15
CUCCAGCAAUAUUACGCAGG,-3.95 ± 0.21,-2.83 ± 0.27
CUCCAGCAAUAUUACGCGGU,-4.01 ± 0.23,-3.96 ± 0.25
CUCCAGCAAUAUUACGCUGU,-4.01 ± 0.34,-2.97 ± 0.34
CUCCAGCAAUAUUACGGCAU,–,-2.56 ± 0.39
